The record followed here is US20090181057A1 (BOARD OF TRUSTEES OF THE UNIVERSITY OF ILLINOIS, published 2009).

Test [1] deals with T1, von Willebrand factor (vWF), purified human (human, UniProt P04275 764-2813).
T1 construct: Purified vWF in the flow cytometry and capillary adhesion assays; the vWF of the donor's plasma in the assays with platelet-rich plasma; also called purified vWF
The test is described as follows: flow cytometry of CHO cells with purified VWF and ristocetin, anti-VWF monoclonal antibody. As to the method:
Flow Cytometric Analysis of VWF Binding to GPIb-IX-expressing Cells—CHO cells expressing wild type (1b9) and mutant GPIb-IX were grown to confluence to synchronize cell growth. The cells were detached using 0.5 mM EDTA in PBS, pH 7.4. Seventy-five percent of the original volume was then replated in Dulbecco's modified Eagle's medium (DMEM) growth media and cultured for 18 h. For VWF binding assays, cells were detached using 0.5 mM EDTA-PBS, pH 7.4, resuspended to a concentration of 2.25×10⁶ cells/ml and incubated in modified Tyrode's buffer (2.5 mM Hepes, 12.1 mM NaHCO₃, 2.36 mM KCl, 0.136 M NaCl, 1 mM CaCl₂, 1 mM MgCl₂, 0.1% D-glucose, 1% BSA, pH 7.4) for 30 min at 4° C. […] After washing once with Tyrode's buffer, cells were further incubated with 10 μg/ml FITC-labeled SZ-29 (a monoclonal antibody against vWF) in the dark at 22° C. for 30 min and then analyzed by flow cytometry. […]
The cells were then analyzed by flow cytometry without washing. […]
To determine the roles of the above described two phosphoserine residues in regulating ligand binding function of GPIb-IX, CHO cell lines bearing wild type and the mutants of GPIb-IX were incubated with purified VWF in the presence of ristocetin (a VWF modulator that induces VWF binding to GPIb-IX). Binding of VWF was determined by flow cytometry using an anti-VWF monoclonal antibody. […]
Background: Flow cytometry measures light scatter and fluorescence of single cells or particles in a stream.

Test [2] addresses maltose-binding protein (MBP), conjugated to control beads (UniProt P0AEX9 27-392 = MBP). Kind of test: bead pull-down from platelet lysate, anti-GPIbα immunoblot. The procedure:
14-3-3 binding to GPIb-IX. Binding of GPIb-IX to 14-3-3-conjugated beads were performed as previously described (Du et al., J. Biol. Chem., 271:7362-7367 (1996)). Briefly, 14-3-3-conjugated Sepharose 4B beads and maltose-binding protein (MBP)-conjugated control beads were preincubated with various concentrations of synthetic peptides at 4° C. for 1 h, and then with platelet lysates for an additional 1 h. The beads were washed three times. Bound GPIb-IX was detected by Western blot with a monoclonal antibody against GPIbα, WM23.
To examine if the above peptides interfere with 14-3-3 interaction with GPIb-IX, platelet lysates were incubated with beads conjugated with recombinant 14-3-3-maltose-binding protein (MBP) fusion protein in the absence or presence of MPαC or control peptides. GPIb-IX from platelet lysates specifically bound to 14-3-3 beads but not the control MBP-conjugated beads (FIG. 1B).

B1: recombinant wild type GPIb-IX expressed in CHO cells (1b9) (receptor)
chain 1: HPICEVSKVASHLEVNCDKRNLTALPPDLPKDTTILHLSENLLYTFSLATLMPYTRLTQLNLDRCELTKLQVDGTLPVLGTLDLSHNQLQSLPLLGQTLPALTVLDVSFNRLTSLPLGALRGLGELQELYLKGNELKTLPPGLLTPTPKLEKLSLANNNLTELPAGLLNGLENLDTLLLQENSLYTIPKGFFGSHLLPFAFLHGNPWLCNCEILYFRRWLQDNAENVYVWKQGVDVKAMTSNVASVQCDNSDKFPVYKYPGKGCPTLGDEGDTDLYDYYPEEDTEGDKVRATRTVVKFPTKAHTTPWGLFYSWSTASLDSQMPSSLHPTQESTKEQTTFPPRWTPNFTLHMESITFSKTPKSTTEPTPSPTTSEPVPEPAPNMTTLEPTPSPTTPEPTSEPAPSPTTPEPTPIPTIATSPTILVSATSLITPKSTFLTTTKPVSLLESTKKTIPELDQPPKLRGVLQGHLESSRNDPFLHPDFCCLLPLGFYVLGLFWLLFASVVLILLLSWVGHVKPQALDSGQGAALTTATQTTHLELQRGRQVTVPRAWLLFLRGSLPTFRSSLFLWVRPNGRVGPLVAGRRPSALSQGRGQDLLSTVSIRYSGHSL
chain 2: CPAPCSCAGTLVDCGRRGLTWASLPTAFPVDTTELVLTGNNLTALPPGLLDALPALRTAHLGANPWRCDCRLVPLRAWLAGRPERAPYRDLRCVAPPALRGRLLPYLAEDELRAACAPGPLCWGALAAQLALLGLGLLHALLLVLLLCRLRRLRARARARAAARLSLTDPLVAERAGTDES
chain 3: TKDCPSPCTCRALETMGLWVDCRGHGLTALPALPARTRHLLLANNSLQSVPPGAFDHLPQLQTLDVTQNPWHCDCSLTYLRLWLEDRTPEALLQVRCASPSLAAHGPLGRLTGYQLGSCGWQLQASWVRPGVLWDVALVAVAALGLALLAGLLCATTEALD
modifications: Ser166 phosphorylated in CHO cells, as the filing says; phosphoserine 609, as the filing calls it
notes: whole, on cells; On intact CHO cells in flow cytometry and adhesion; in Triton X-100 lysate in the co-immunoprecipitation; No GPV
On to B1, for which the binding result in test [1] is recorded as “binds”.

B2: glycoprotein (GP) Ib-IX-V complex (GPIb-IX) of human platelets (receptor)
chain 1: HPICEVSKVASHLEVNCDKRNLTALPPDLPKDTTILHLSENLLYTFSLATLMPYTRLTQLNLDRCELTKLQVDGTLPVLGTLDLSHNQLQSLPLLGQTLPALTVLDVSFNRLTSLPLGALRGLGELQELYLKGNELKTLPPGLLTPTPKLEKLSLANNNLTELPAGLLNGLENLDTLLLQENSLYTIPKGFFGSHLLPFAFLHGNPWLCNCEILYFRRWLQDNAENVYVWKQGVDVKAMTSNVASVQCDNSDKFPVYKYPGKGCPTLGDEGDTDLYDYYPEEDTEGDKVRATRTVVKFPTKAHTTPWGLFYSWSTASLDSQMPSSLHPTQESTKEQTTFPPRWTPNFTLHMESITFSKTPKSTTEPTPSPTTSEPVPEPAPNMTTLEPTPSPTTPEPTSEPAPSPTTPEPTPIPTIATSPTILVSATSLITPKSTFLTTTKPVSLLESTKKTIPELDQPPKLRGVLQGHLESSRNDPFLHPDFCCLLPLGFYVLGLFWLLFASVVLILLLSWVGHVKPQALDSGQGAALTTATQTTHLELQRGRQVTVPRAWLLFLRGSLPTFRSSLFLWVRPNGRVGPLVAGRRPSALSQGRGQDLLSTVSIRYSGHSL
chain 2: CPAPCSCAGTLVDCGRRGLTWASLPTAFPVDTTELVLTGNNLTALPPGLLDALPALRTAHLGANPWRCDCRLVPLRAWLAGRPERAPYRDLRCVAPPALRGRLLPYLAEDELRAACAPGPLCWGALAAQLALLGLGLLHALLLVLLLCRLRRLRARARARAAARLSLTDPLVAERAGTDES
chain 3: TKDCPSPCTCRALETMGLWVDCRGHGLTALPALPARTRHLLLANNSLQSVPPGAFDHLPQLQTLDVTQNPWHCDCSLTYLRLWLEDRTPEALLQVRCASPSLAAHGPLGRLTGYQLGSCGWQLQASWVRPGVLWDVALVAVAALGLALLAGLLCATTEALD
chain 4: QPFPCPPACKCVFRDAAQCSGGDVARISALGLPTNLTHILLFGMGRGVLQSQSFSGMTVLQRLMISDSHISAVAPGTFSDLIKLKTLRLSRNKITHLPGALLDKMVLLEQLFLDHNALRGIDQNMFQKLVNLQELALNQNQLDFLPASLFTNLENLKLLDLSGNNLTHLPKGLLGAQAKLERLLLHSNRLVSLDSGLLNSLGALTELQFHRNHIRSIAPGAFDRLPNLSSLTLSRNHLAFLPSALFLHSHNLTLLTLFENPLAELPGVLFGEMGGLQELWLNRTQLRTLPAAAFRNLSRLRYLGVTLSPRLSALPQGAFQGLGELQVLALHSNGLTALPDGLLRGLGKLRQVSLRRNRLRALPRALFRNLSSLESVQLDHNQLETLPGDVFGALPRLTEVLLGHNSWRCDCGLGPFLGWLRQHLGLVGGEEPPRCAGPGAHAGLPLWALPGGDAECPGPRGPPPRPAADSSSEAPVHPALAPNSSEPWVWAQPVTTGKGQDHSPFWGFYFLLLAVQAMITVIIVFAMIKIGQLFRKLIRERALG
modifications: phosphoserine at Ser609 (the filing says Ser609 is constitutively phosphorylated in resting platelets)
notes: whole, on cells; Native complex of platelets from healthy donors; solubilised in platelet lysate in the 14-3-3 bead pull-down; also called glycoprotein Ib-IX; platelet VWF receptor
Consider B2, for which the binding result in test [2] is listed as “no binding”.

B3: GPIb-IX with wild type GPIbβ and GPIX and GPIbα S609A, expressed in CHO cells (S609A) (receptor)
chain 1: HPICEVSKVASHLEVNCDKRNLTALPPDLPKDTTILHLSENLLYTFSLATLMPYTRLTQLNLDRCELTKLQVDGTLPVLGTLDLSHNQLQSLPLLGQTLPALTVLDVSFNRLTSLPLGALRGLGELQELYLKGNELKTLPPGLLTPTPKLEKLSLANNNLTELPAGLLNGLENLDTLLLQENSLYTIPKGFFGSHLLPFAFLHGNPWLCNCEILYFRRWLQDNAENVYVWKQGVDVKAMTSNVASVQCDNSDKFPVYKYPGKGCPTLGDEGDTDLYDYYPEEDTEGDKVRATRTVVKFPTKAHTTPWGLFYSWSTASLDSQMPSSLHPTQESTKEQTTFPPRWTPNFTLHMESITFSKTPKSTTEPTPSPTTSEPVPEPAPNMTTLEPTPSPTTPEPTSEPAPSPTTPEPTPIPTIATSPTILVSATSLITPKSTFLTTTKPVSLLESTKKTIPELDQPPKLRGVLQGHLESSRNDPFLHPDFCCLLPLGFYVLGLFWLLFASVVLILLLSWVGHVKPQALDSGQGAALTTATQTTHLELQRGRQVTVPRAWLLFLRGSLPTFRSSLFLWVRPNGRVGPLVAGRRPSALSQGRGQDLLSTVSIRYSGHAL
chain 2: CPAPCSCAGTLVDCGRRGLTWASLPTAFPVDTTELVLTGNNLTALPPGLLDALPALRTAHLGANPWRCDCRLVPLRAWLAGRPERAPYRDLRCVAPPALRGRLLPYLAEDELRAACAPGPLCWGALAAQLALLGLGLLHALLLVLLLCRLRRLRARARARAAARLSLTDPLVAERAGTDES
chain 3: TKDCPSPCTCRALETMGLWVDCRGHGLTALPALPARTRHLLLANNSLQSVPPGAFDHLPQLQTLDVTQNPWHCDCSLTYLRLWLEDRTPEALLQVRCASPSLAAHGPLGRLTGYQLGSCGWQLQASWVRPGVLWDVALVAVAALGLALLAGLLCATTEALD
notes: whole, on cells; also called S609A mutant
B3: in test [1], the binding result was “binds”.
